IntAct's records for PubMed 35512704

B1: Mothers against decapentaplegic homolog 4 (Homo sapiens), Q13485 (parent)
chain: MDNMSITNTPTSNDACLSIVHSLMCHRQGGESETFAKRAIESLVKKLKEKKDELDSLITAITTNGAHPSKCVTIQRTLDGRLQVAGRKGFPHVIYARLWRWPDLHKNELKHVKYCQYAFDLKCDSVCVNPYHYERVVSPGIDLSGLTLQSNAPSSMMVKDEYVHDFEGQPSLSTEGHSIQTIQHPPSNRASTETYSTPALLAPSESNATSTANFPNIPVASTSQPASILGGSHSEGLLQIASGPQPGQQQNGFTGQPATYHHNSTTTWTGSRTAPYTPNLPHHQNGHLQHHPPMPPHPGHYWPVHNELAFQPPISNHPAPEYWCSIAYFEMDVQVGETFKVPSSCPIVTVDGYVDPSGGDRFCLGQLSNVHRTEAIERARLHIGKGVQLECKGEGDVWVRCLSDHAVFVQSYYLDREAGRAPGDAVHKIYPSAYIKVFDLRQCHRQMQQQAATAQAAAAAQAAAVAGNIPGPGSVGGIAPAISLSAAAGIGVDDLRRLCILRMSFVKGWGPDYPRQSIKETPCWIEIHLHRALQLLDEVLHTMPIADPQPLD
partner: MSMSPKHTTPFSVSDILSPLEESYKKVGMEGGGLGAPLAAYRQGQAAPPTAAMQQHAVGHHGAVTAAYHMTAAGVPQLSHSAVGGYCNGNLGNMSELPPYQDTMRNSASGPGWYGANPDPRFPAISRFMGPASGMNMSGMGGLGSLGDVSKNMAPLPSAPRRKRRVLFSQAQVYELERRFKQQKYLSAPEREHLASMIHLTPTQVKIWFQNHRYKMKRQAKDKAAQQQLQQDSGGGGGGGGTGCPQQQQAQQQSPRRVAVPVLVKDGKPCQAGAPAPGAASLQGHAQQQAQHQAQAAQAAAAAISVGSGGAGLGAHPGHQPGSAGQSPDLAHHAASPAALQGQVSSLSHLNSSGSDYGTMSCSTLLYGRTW
B2: Mothers against decapentaplegic homolog 4 (Homo sapiens), Q13485 (parent)
chain: B1 chain
partner: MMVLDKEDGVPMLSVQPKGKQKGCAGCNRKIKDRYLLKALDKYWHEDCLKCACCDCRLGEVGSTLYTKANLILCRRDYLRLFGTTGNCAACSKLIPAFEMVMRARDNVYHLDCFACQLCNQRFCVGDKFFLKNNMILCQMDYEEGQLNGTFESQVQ
B3: Mothers against decapentaplegic homolog 4 (Homo sapiens), Q13485 (parent)
chain: B1 chain
partner: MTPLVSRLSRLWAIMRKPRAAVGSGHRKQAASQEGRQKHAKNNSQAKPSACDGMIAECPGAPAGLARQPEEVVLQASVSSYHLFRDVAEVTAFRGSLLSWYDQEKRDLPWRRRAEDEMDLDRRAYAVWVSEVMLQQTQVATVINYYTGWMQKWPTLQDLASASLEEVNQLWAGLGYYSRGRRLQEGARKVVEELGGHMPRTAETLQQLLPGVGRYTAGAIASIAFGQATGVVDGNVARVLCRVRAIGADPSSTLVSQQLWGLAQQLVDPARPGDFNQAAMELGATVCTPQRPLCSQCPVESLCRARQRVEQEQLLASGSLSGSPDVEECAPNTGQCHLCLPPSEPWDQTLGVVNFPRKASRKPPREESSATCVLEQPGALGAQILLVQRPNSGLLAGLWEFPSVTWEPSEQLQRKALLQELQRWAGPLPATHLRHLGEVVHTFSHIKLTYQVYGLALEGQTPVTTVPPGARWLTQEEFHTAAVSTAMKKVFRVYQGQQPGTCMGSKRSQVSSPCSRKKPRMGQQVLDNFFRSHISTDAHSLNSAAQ
B4: Mothers against decapentaplegic homolog 4 (Homo sapiens), Q13485 (parent)
chain: B1 chain
partner: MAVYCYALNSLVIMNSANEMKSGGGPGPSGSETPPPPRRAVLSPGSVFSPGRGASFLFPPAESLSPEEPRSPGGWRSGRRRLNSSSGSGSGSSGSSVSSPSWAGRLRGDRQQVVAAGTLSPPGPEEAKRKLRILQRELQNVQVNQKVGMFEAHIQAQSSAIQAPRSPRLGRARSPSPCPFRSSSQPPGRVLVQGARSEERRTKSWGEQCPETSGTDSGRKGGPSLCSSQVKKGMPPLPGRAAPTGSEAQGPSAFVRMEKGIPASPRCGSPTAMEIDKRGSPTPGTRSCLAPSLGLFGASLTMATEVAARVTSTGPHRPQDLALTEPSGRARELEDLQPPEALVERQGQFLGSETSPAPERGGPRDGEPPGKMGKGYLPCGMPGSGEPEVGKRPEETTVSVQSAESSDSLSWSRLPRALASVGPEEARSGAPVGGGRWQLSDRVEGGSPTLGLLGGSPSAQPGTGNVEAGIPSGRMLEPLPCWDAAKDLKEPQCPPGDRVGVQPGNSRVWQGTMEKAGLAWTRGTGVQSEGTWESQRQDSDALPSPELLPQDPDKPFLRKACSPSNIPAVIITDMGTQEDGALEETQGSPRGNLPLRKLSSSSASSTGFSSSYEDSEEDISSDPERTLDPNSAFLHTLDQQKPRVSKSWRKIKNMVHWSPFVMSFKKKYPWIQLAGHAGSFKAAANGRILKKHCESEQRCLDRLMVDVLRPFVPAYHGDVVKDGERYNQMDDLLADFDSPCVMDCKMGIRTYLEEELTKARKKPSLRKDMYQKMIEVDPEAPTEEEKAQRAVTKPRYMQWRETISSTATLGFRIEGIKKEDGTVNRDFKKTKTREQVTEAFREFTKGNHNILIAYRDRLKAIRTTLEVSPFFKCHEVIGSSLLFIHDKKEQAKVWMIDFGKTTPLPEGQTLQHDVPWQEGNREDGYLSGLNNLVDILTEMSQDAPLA
B5: Mothers against decapentaplegic homolog 4 (Homo sapiens), Q13485 (parent)
chain: B1 chain
partner: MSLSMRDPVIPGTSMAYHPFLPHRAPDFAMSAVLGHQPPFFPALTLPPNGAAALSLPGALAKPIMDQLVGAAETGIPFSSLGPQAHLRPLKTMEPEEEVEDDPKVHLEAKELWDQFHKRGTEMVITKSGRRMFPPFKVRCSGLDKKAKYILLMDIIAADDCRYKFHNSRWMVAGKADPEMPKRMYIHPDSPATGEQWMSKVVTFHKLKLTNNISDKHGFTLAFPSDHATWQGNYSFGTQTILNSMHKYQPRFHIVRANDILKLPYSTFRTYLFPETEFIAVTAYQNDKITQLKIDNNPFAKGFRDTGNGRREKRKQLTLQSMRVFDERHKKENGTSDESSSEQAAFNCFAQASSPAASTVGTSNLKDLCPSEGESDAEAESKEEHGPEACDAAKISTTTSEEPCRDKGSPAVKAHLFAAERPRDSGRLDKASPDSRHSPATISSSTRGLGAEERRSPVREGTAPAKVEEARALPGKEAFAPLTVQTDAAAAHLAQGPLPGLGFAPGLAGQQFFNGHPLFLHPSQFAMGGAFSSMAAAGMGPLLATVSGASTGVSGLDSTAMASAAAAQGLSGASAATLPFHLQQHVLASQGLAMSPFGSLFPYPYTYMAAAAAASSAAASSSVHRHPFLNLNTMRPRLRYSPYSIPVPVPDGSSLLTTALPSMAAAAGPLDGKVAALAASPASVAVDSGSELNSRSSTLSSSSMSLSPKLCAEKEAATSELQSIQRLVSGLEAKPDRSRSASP
B6: Mothers against decapentaplegic homolog 4 (Homo sapiens), Q13485 (parent)
chain: B1 chain
partner: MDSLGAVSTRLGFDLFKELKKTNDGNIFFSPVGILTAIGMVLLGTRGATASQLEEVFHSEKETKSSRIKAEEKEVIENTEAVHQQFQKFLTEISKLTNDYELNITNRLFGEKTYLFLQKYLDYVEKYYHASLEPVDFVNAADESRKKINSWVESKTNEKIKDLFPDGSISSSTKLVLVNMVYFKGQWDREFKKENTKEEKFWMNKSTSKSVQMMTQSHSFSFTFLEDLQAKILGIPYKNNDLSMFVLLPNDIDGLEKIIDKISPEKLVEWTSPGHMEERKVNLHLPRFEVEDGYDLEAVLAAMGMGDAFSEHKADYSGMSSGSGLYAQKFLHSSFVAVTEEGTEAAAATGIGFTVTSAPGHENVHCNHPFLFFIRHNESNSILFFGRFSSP
B7: Mothers against decapentaplegic homolog 4 (Homo sapiens), Q13485 (parent)
chain: B1 chain
partner: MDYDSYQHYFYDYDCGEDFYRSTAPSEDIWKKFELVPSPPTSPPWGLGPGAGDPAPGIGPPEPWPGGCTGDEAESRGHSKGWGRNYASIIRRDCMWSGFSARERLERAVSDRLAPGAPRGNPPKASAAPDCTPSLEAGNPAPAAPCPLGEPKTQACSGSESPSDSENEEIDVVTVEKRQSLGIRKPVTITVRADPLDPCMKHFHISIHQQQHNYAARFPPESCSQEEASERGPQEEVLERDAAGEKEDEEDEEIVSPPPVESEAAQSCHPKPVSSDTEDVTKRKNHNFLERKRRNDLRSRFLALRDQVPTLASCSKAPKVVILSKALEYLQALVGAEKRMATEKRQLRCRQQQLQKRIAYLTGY

Variants of: B1
Conditions: with nkx21_human NKX2-1, P43699

Variant | effect of a mutation on the interaction
R361C | with no effect

Variants of: B1
Conditions: with nkx21_human NKX2-1, P43699
Remark: another data set of the same source

Variant | effect of a mutation on the interaction
R361H | with no effect

Variants of: B1
Conditions: with nkx21_human NKX2-1, P43699
Remark: another data set of the same source

Variant | effect of a mutation on the interaction
D351H | with no effect

Variants of: B2
Conditions: with rbtn1_human LMO1, P25800

Variant | effect of a mutation on the interaction
G386D | with no effect

Variants of: B2
Conditions: with rbtn1_human LMO1, P25800
Remark: another data set of the same source

Variant | effect of a mutation on the interaction
D351H | with no effect

Variants of: B2
Conditions: with rbtn1_human LMO1, P25800
Remark: another data set of the same source

Variant | effect of a mutation on the interaction
R361H | with no effect

Variants of: B2
Conditions: with rbtn1_human LMO1, P25800
Remark: another data set of the same source

Variant | effect of a mutation on the interaction
R361C | with no effect

Variants of: B3
Conditions: with mutyh_human MUTYH

Variant | effect of a mutation on the interaction
G386D | with no effect

Variants of: B3
Conditions: with mutyh_human MUTYH
Remark: another data set of the same source

Variant | effect of a mutation on the interaction
D351H | with no effect

Variants of: B3
Conditions: with mutyh_human MUTYH
Remark: another data set of the same source

Variant | effect of a mutation on the interaction
R361C | with no effect

Variants of: B4
Conditions: with ip3kb_human ITPKB

Variant | effect of a mutation on the interaction
R361H | with no effect

Variants of: B4
Conditions: with ip3kb_human ITPKB
Remark: another data set of the same source

Variant | effect of a mutation on the interaction
R361C | with no effect

Variants of: B4
Conditions: with ip3kb_human ITPKB
Remark: another data set of the same source

Variant | effect of a mutation on the interaction
G386D | with no effect

Variants of: B4
Conditions: with ip3kb_human ITPKB
Remark: another data set of the same source

Variant | effect of a mutation on the interaction
D351H | with no effect

Variants of: B5
Conditions: with tbx3_human TBX3, O15119

Variant | effect of a mutation on the interaction
D351H | with no effect

Variants of: B5
Conditions: with tbx3_human TBX3, O15119
Remark: another data set of the same source

Variant | effect of a mutation on the interaction
G386D | with no effect

Variants of: B5
Conditions: with tbx3_human TBX3, O15119
Remark: another data set of the same source

Variant | effect of a mutation on the interaction
R361H | with no effect

Variants of: B5
Conditions: with tbx3_human TBX3, O15119
Remark: another data set of the same source

Variant | effect of a mutation on the interaction
R361C | with no effect

Variants of: B6
Conditions: with spb13_human SERPINB13, Q9UIV8

Variant | effect of a mutation on the interaction
G386D | with no effect

Variants of: B6
Conditions: with spb13_human SERPINB13, Q9UIV8
Remark: another data set of the same source

Variant | effect of a mutation on the interaction
D351H | with no effect

Variants of: B6
Conditions: with spb13_human SERPINB13, Q9UIV8
Remark: another data set of the same source

Variant | effect of a mutation on the interaction
R361H | with no effect

Variants of: B6
Conditions: with spb13_human SERPINB13, Q9UIV8
Remark: another data set of the same source

Variant | effect of a mutation on the interaction
R361C | with no effect

Variants of: B7
Conditions: with mycl_human MYCL

Variant | effect of a mutation on the interaction
D351H | with no effect
